± gives the uncertainty stated by the source.

A short description of this series: amyloid nucleation score (Sup35N fusion, yeast selection) (log enrichment); library NNK3; higher = more nucleation; inactive = no reads after selection. In a few lines: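 Using DiMSum, nucleation scores were taken as the log enrichment of output over input reads, centred on the mode score of non-aggregating sequences. The input and output reads came from Illumina sequencing of plasmid inserts, with sequences under 100 input reads excluded. The yeast were psi-negative, expressed Sup35N fused to peptides of 20 random codons, were induced with 100 μM copper sulfate for 24 hours, and were grown 7 days at 30°C on medium lacking adenine and uracil.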

VYISESVQRMYSLCTFSSLD had an amyloid nucleation score of 1.18 ± 0.085.
Substance FLMAINFKVQSVPQNHR returned an amyloid nucleation score of 0.211 ± 0.48.
With NTVEPLYCCCSNRCISVSYV, the amyloid nucleation score entry was “inactive”.
Under IMGTYKSDLVAARFRFYV stands “inactive”; under YPCLSIGFSCSVLRMNVYLW, 0.368 ± 0.21.
For KDVRVWRLFRLD, the amyloid nucleation score entry was “inactive”.
Take NRSLEVNELI: the amyloid nucleation score is -0.412 ± 0.68.
Take LNDGWVLIYYSGALSDREI: the amyloid nucleation score result is “inactive”.
Regarding DLKWNVRHGCISKTARGFVT, the amyloid nucleation score result was “inactive”.
YSWRGIFNGWFFCFMARVLG: the amyloid nucleation score result was “inactive”.
With RQRMSGQNVTNNHACLFKAR, the amyloid nucleation score entry is “inactive”.
ACSLSWCHTGCY: the amyloid nucleation score result was “inactive”.
For the substance FVESIAVLKLFNTVKWITFF, the amyloid nucleation score entry was “inactive”.
Turning to FQMKCNFWKI, the amyloid nucleation score amounted to 1.24 ± 0.077.
Substance YCKIKLIQGNRFNEYISYCD displayed an amyloid nucleation score of 2.56 ± 0.054.
The substance RYGTVDCIYCFMDLGVRDTG displayed an amyloid nucleation score of 2.46 ± 0.081.
With TDHCMVGGMYLEPVTIFFEG the entry was “inactive”; with YVWRDLKAMGFVYAGVCGKA, “inactive”.
As for WVFSWKMHRSKSKYRSKYLP, the amyloid nucleation score entry was “inactive”.
Substance LKVCNISDWFNIACSVMSFH registered an amyloid nucleation score of 1.93 ± 0.086.
As to IHKTFLTL, the amyloid nucleation score entry is “inactive”.
Turning to RGDVLRFTWCSEPGCQRRTT, the amyloid nucleation score result is “inactive”.
On to GQDRYLLAAYK, for which the amyloid nucleation score entry was “inactive”.
As to RNTVSSTQEIWRLPISLEKT, the amyloid nucleation score result was “inactive”.
For NYICVK, the amyloid nucleation score result is “inactive”.
Consider LFTLKLTVSKMKLWLLYGCS, for which the amyloid nucleation score result was “inactive”.
With HDCCDLGFSVDV, the amyloid nucleation score entry is “inactive”.
Under LARGDYVMKDMVLAHINDLC stands “inactive”; under RVCYEFKYKIKYVLD, -0.457 ± 0.5; under YITKLTGWTIE, “inactive”.
Take KGYSKCEDPMLECYYCTPVN: the amyloid nucleation score result is “inactive”.
SLLGSEGVSLIFLHYYWWSA: the amyloid nucleation score result is “inactive”.
For TVHSIDRVVIIHRLMND, the amyloid nucleation score came out at 0.235 ± 0.35.
Under QYELIGSKYVQRFSFQANFS stands 2.07 ± 0.074.
For the substance CSCIGWLRNGDVSCNVDRAS, the amyloid nucleation score result was “inactive”.
With VDLGRWFSSGFVWLGYKDIF, the amyloid nucleation score entry is “inactive”.
Under AYYKCWNNATDLVTNVPPIH stands “inactive”; under FRFGSVELLEAGTIQ, 0.043 ± 0.63.
With LCYTPRGNKFTHLKW the figure was 0.595 ± 0.18; with NYVLRSMSGTRFRALWRVAP, “inactive”.
The substance FMDYTARVVHLTAQRFMGLW returned an amyloid nucleation score of 0.189 ± 0.43.
Consider RCFVPINGK, for which the amyloid nucleation score result is “inactive”.
As for YTKMGTRLAFFWIRMMMRGR, the amyloid nucleation score entry was “inactive”.
Regarding SFKMSVVAGVRTLGIFVWVF, the amyloid nucleation score result is “inactive”.
For the substance YGREMRSSMMNGGYLIIMKW, the amyloid nucleation score entry was “inactive”.
As for SVESECRDMFSFKGFCVCVK, the amyloid nucleation score entry was “inactive”.
Under VFFTHATVLSKSYFNLERLV stands 0.426 ± 0.33.
On to YMDRFDK, for which the amyloid nucleation score result is “inactive”.
On to RHGKIAAS, for which the amyloid nucleation score result is “inactive”.
In the case of HKPFNFYLGLPLTVV, the amyloid nucleation score result was “inactive”.
Turning to SIPRRNRDGLAWNARHNLQY, the amyloid nucleation score result is “inactive”.
Under APTRSV stands “inactive”.
SELTEVTSITDWF: the amyloid nucleation score entry is “inactive”.
Regarding KDIFYVAGDR, the amyloid nucleation score entry is “inactive”.
For KGSSSSIDTIFLYRGYFSIA, the amyloid nucleation score result is “inactive”.
Regarding FSFFRGTRLGKSARIAERFE, the amyloid nucleation score result is “inactive”.
Take CRWGNVIYFFTR: the amyloid nucleation score came out at 1.45 ± 0.12.
The substance FEETIINFCRYLFMMFTGVV showed an amyloid nucleation score of 1.87 ± 0.1.
On to GYYYNSMNFRWFIKMVVMVR, for which the amyloid nucleation score entry was “inactive”.
In the case of GNLNGILFRISRQKEM, the amyloid nucleation score entry is “inactive”.
With PCSGLKCSKGCWCNKICKYK the figure was 1.37 ± 0.13; with NVVYTFPLYASDMGIGV, “inactive”; with KPASAGLVINAVGSGHSEMW, “inactive”.
Under SRRDYRLGSTVKLVVLGKSF stands “inactive”.
For RTSVISISSLILALRGLYSR, the amyloid nucleation score entry was “inactive”.
Substance FRNSLQ registered an amyloid nucleation score of -0.725 ± 1.1.
Under VNKFNFNIVIFSNWNMYQ stands 3.36 ± 0.062; under IVWPIIRAHS, -0.313 ± 0.93.
Under YNSYSSYKIVKLY stands “inactive”.
Turning to SYMWPMSWQET, the amyloid nucleation score result was “inactive”.
Under FFLMKDSLLSSVERSIGVIG stands “inactive”; under FWLLIIVF, “inactive”; under NLLLFF, 1.82 ± 0.096.
For the substance KKASVLSHVTYNRMITAWNI, the amyloid nucleation score entry is “inactive”.
As to KCRVG, the amyloid nucleation score result is “inactive”.
Regarding GFLPA, the amyloid nucleation score entry is “inactive”.
As to RCKSGLNSMGRRFRYRIQQP, the amyloid nucleation score came out at 0.809 ± 0.18.
With TLSSLPVPL the entry was “inactive”.
With RGFICIGTLYLLAPVFCARS the figure was 2.85 ± 0.062; with RRVSSSLIEAYYREQSRFQI, “inactive”.
Under FKSYTWMKNLTVGFRIDPSE stands “inactive”.
Turning to WLLLLSK, the amyloid nucleation score entry is “inactive”.
Under YPLASYGLMCGFETDYPGAA stands “inactive”; under TGFNASCCLLGSRCGAEKIL, 0.604 ± 0.18.
Under YTSRFSSCLWESRSDEGRNM stands “inactive”; under IIFFWILS, 0.16 ± 0.29.
As for FKSASGRL, the amyloid nucleation score entry was “inactive”.
With NDHLSCVRMVLHSMGCHKWS the figure was -0.181 ± 0.88; with RVATGVVCMM, “inactive”.
In the case of SPQFELLDITKPCRT, the amyloid nucleation score result was “inactive”.
As for MVRFMLFMK, the amyloid nucleation score entry is “inactive”.
With AIEKGHK the figure was 0.235 ± 0.19; with TWGCYLLISNI, “inactive”.
With IYSALYLYRTPKSVYQVTQS the figure was -0.575 ± 1; with KLSGTLFFGSKGFVFPPYAF, “inactive”; with LIRPDCEDTRFCIRSWDCQG, “inactive”.
Turning to DYESMTCNVSSDTVPFQQA, the amyloid nucleation score result was “inactive”.
On to RGSDEDGYLG, for which the amyloid nucleation score is 0.003 ± 0.7.
Consider TNRRN, for which the amyloid nucleation score entry is “inactive”.
VSKVKSNPPYITDEIVFCRR: the amyloid nucleation score result is “inactive”.
With VTRFTYPRILLGRNVDWLSF, the amyloid nucleation score entry was “inactive”.
Regarding TAEDYFMKVY, the amyloid nucleation score entry is “inactive”.
Regarding YEGRSNSVRSK, the amyloid nucleation score result is “inactive”.
Regarding SMIKPAIFGYNVMLVPYINC, the amyloid nucleation score entry was “inactive”.
Take LGWSMFLFDFSFKVKSH: the amyloid nucleation score entry was “inactive”.
Under SISAKVGSSGRLGRSPYRVD stands “inactive”; under RTCAYRMESVHVVRVSAGIM, “inactive”.
As for SGSLPMRTMLFP, the amyloid nucleation score entry is “inactive”.
With YLGLRKIWIYL the entry was “inactive”; with SLMSSATICTFMG, “inactive”.
For SLIGSRGPLNSGEVMMMLFK, the amyloid nucleation score result is “inactive”.
For RSSDYNRLHRSFSCNG, the amyloid nucleation score result is “inactive”.
Take MPYVSKVYHYRYT: the amyloid nucleation score entry was “inactive”.
As to RSGHRGHYKFEL, the amyloid nucleation score entry was “inactive”.
Turning to LNTLGKNNIKRSILRRSLYY, the amyloid nucleation score result was “inactive”.
In the case of PVGVMTVSDLLFDYFAFRSF, the amyloid nucleation score result is “inactive”.
For SLNKWVGCRSRIRWDLGTQF, the amyloid nucleation score entry is “inactive”.
As to NGFGSNNVGSGERLADVAVI, the amyloid nucleation score result is “inactive”.
Under HCSYEFNS stands -0.001 ± 0.4.
CIVLTVKCSLA: the amyloid nucleation score was -0.669 ± 0.55.
With CFKRLVIIMGGLGAA the entry was “inactive”.
With SYVNIFHDGIIMNSYVAWGH, the amyloid nucleation score result was “inactive”.
Turning to MGSYM, the amyloid nucleation score entry is “inactive”.
In the case of PGISRNFVNGPRWSMFS, the amyloid nucleation score entry was “inactive”.
For LNHYECSW, the amyloid nucleation score entry was “inactive”.
Consider VYSTVF, for which the amyloid nucleation score entry was “inactive”.
The substance YFNLSEYGLCCYRGFRVYKS displayed an amyloid nucleation score of 1.23 ± 0.18.
With EFIGGRAMLYEEWYMGVSSM, the amyloid nucleation score result is “inactive”.
Take PTSSKLKFAFINYVLTVSTS: the amyloid nucleation score entry was “inactive”.
With EYKRTSMVVQFSCSAYILTF, the amyloid nucleation score result was “inactive”.
In the case of NTHAVLICKCKDCEWNMIGG, the amyloid nucleation score came out at 0.246 ± 0.66.
Turning to VVSAGIAFPWTGLS, the amyloid nucleation score entry is “inactive”.
In the case of CQSLLSGRFTGKSFEIT, the amyloid nucleation score result was “inactive”.
Under GTTSFVLVCVCWSG stands -0.409 ± 0.95.

For the origin of these results see the supplement of paper PMC12042874.
